As usually defined, the stoichiometry N is the number of molecules, sites or subunits per partner or assembly. Broadly, the Kd is the free concentration of one partner at which half of the binding sites on the other are occupied at equilibrium, for simple one-to-one binding. Low values mean a tighter complex, high ones a looser complex.

T1: GST-tagged Mmi1^1-122 amino-terminal fragment (S. pombe, UniProt O74958 1-122)
T1 construct: Vector Tev4T1 (modified pGEX-4T1 with a TEV site); source: E. coli BL21 (Gold), purified (glutathione sepharose, SEC)
T1 sequence (looked up): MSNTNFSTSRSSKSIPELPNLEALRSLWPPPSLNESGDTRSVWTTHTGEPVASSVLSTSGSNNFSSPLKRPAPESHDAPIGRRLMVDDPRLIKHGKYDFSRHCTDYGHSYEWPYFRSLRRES

T2: Erh1 D27A (S. pombe, UniProt G2TRN4 1-104, D27A)
T2 construct: Erh1, S. pombe, residues 1-104, point mutant made with the MutanBEST kit; source: E. coli BL21 (Gold), purified (Ni-chelating resin, size-exclusion chromatography)
T2 sequence (looked up): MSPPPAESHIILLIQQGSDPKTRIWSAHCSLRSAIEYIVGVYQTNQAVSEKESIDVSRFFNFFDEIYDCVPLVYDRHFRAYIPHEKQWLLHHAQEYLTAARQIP

T3: Erh1 R23A (S. pombe, UniProt G2TRN4 1-104, R23A)
T3 construct: Erh1, S. pombe, residues 1-104, point mutant made with the MutanBEST kit; source: E. coli BL21 (Gold), purified (Ni-chelating resin, size-exclusion chromatography)
T3 sequence (looked up): T2 sequence (looked up) with R23A, A27D

T4: Erh1 D68A (S. pombe, UniProt G2TRN4 1-104, D68A)
T4 construct: Erh1, S. pombe, residues 1-104, point mutant made with the MutanBEST kit; source: E. coli BL21 (Gold), purified (Ni-chelating resin, size-exclusion chromatography)
T4 sequence (looked up): T2 sequence (looked up) with A27D, D68A

T5: Erh1 H9A (S. pombe, UniProt G2TRN4 1-104, H9A)
T5 construct: Erh1, S. pombe, residues 1-104, point mutant made with the MutanBEST kit; source: E. coli BL21 (Gold), purified (Ni-chelating resin, size-exclusion chromatography)
T5 sequence (looked up): T2 sequence (looked up) with H9A, A27D

T6: Erh1 E85A (S. pombe, UniProt G2TRN4 1-104, E85A)
T6 construct: Erh1, S. pombe, residues 1-104, point mutant made with the MutanBEST kit; source: E. coli BL21 (Gold), purified (Ni-chelating resin, size-exclusion chromatography)
T6 sequence (looked up): T2 sequence (looked up) with A27D, E85A

B1: His-tagged Erh1 (residues 1-104) (natural protein, S. pombe, UniProt G2TRN4 1-104, looked up)
chain: T2 sequence (looked up) with A27D
notes: Erh1 (Enhancer of rudimentary homolog 1), S. pombe, residues 1-104; Cloned into p28a, a modified pET28a without a thrombin cleavage site; Homodimer by SEC and in the crystal; also called Enhancer of rudimentary homolog 1; source: E. coli BL21 (Gold), purified (Ni-chelating resin, SEC)
B2: Erh1: S. pombe ortholog of human ERH (protein)
chain: T2 sequence (looked up) with A27D
modifications: left off: His6, end not stated, state not stated
notes: S. pombe ortholog of human ERH
B3: SUMO tagged Mmi1^95-122 (domain or fragment, S. pombe, UniProt O74958 95-122, looked up)
chain: GKYDFSRHCTDYGHSYEWPYFRSLRRES
notes: SUMO protein fused at the N-terminus following the His6 tag (modified pET28a); source: E. coli BL21 (Gold), purified (Ni-chelating resin, SEC); not shown: SUMO, N-terminal, kept
B4: GST-tagged Mmi1^1–122: purified GST-tagged Mmi1 amino-terminal fragment, residues 1–122 (protein, UniProt O74958 1-122, looked up, fragment)
chain: T1 sequence (looked up)
modifications: GST tag
B5: Mmi1^95-122 peptide (SUMO tag removed) (peptide, UniProt O74958 95-122, looked up)
chain: GKYDFSRHCTDYGHSYEWPYFRSLRRES
notes: also called EID; EIM peptide; source: E. coli BL21 (Gold), purified as SUMO fusion, incubated with Erh1, SUMO tag removed by ULP1; not shown: His6, N-terminal, cleaved; SUMO, N-terminal, cleaved
B6: SUMO-tagged Mmi1 95-122 (domain or fragment, S. pombe, UniProt O74958 95-122, looked up)
chain: GKYDFSRHCTDYGHSYEWPYFRSLRRES
notes: SUMO stands after the His6 tag at the N-terminus; also called Mmi1wt; source: E. coli BL21 (Gold), purified (Ni-chelating resin, size-exclusion chromatography); not shown: SUMO, N-terminal, kept
B7: GST-tagged YTH domain of Mmi1: carboxy-terminal YTH domain of Mmi1, purified GST fusion (protein)
chain: SRYFIMLCDNETAIAHAKKTSIWAVKKDSSKRISDAYKKASVYFIFVAQQTYNALGYAQVVSDLNSTELPFWSDSSHAGGVRIKWIKTCNLFSAEISEIVSHMDHGSEARDGMEMMYDEGSRLCTLI
modifications: left off: GST, end not stated, kept
notes: carboxy-terminal YTH domain of Mmi1, purified GST fusion

Residue numbers refer to the chain shown, from its start.

For data set [1], the target named is T1, GST-tagged Mmi1^1-122 amino-terminal …. The data set is described as follows: pull-down; GST-Mmi1 fusion proteins incubated with Erh1, collected with glutathione-agarose resin, eluted, SDS-PAGE with Coomassie blue staining. The conditions noted are these: both partners purified.
Data set [2] deals with the molecule itself. As to the kind of experiment: SEC; analytical size-exclusion chromatography, calibrated Superdex75 10/300 GL column; Erh1 alone and Erh1 with Mmi1^95-122 after removal of the SUMO tag by ULP1. A general note: SEC sorts molecules by how far they enter the pores of the column.
Data set [3] can be described thus: Analytical size-exclusion chromatography (oligomeric state). Format: physicochemical. The protocol: Next, we assessed the stoichiometry of Erh1 and Erh1-Mmi1^95–122 complexes by analytical size-exclusion chromatography (SEC) using a calibrated Superdex75 10/300 GL column (GE Healthcare). Erh1 eluted as a single peak at 11.41 mL, corresponding to an apparent molecular weight (MW) of 26 kDa. With a predicted molecular weight (MW) of ~13.2 kDa, this elution profile likely represents Erh1 homodimers (Fig. 1g). This is consistent with previous reports showing that human ERH protein exists as a dimer in solution[37].
We next purified SUMO-tagged Mmi1^95–122 and incubated it with Erh1, followed by removal of the SUMO tag by ULP1 enzyme.

The target in data set [4] is B1. As to the kind of experiment: ITC; MicroCal iTC200, 293 K, 20 mM Tris-HCl pH 7.5, 150 mM NaCl; SUMO-tagged Mmi1 peptides titrated into Erh1 in the cell; single-site binding model. Particulars: both partners purified. In general terms: ITC needs no label: the signal is the heat of the interaction.
For the next data set, the system named is Erh1. The data set is described as follows: GST pull-down of Erh1 with GST-tagged Mmi1 fragments, Coomassie. Format: binding, S. pombe. The conditions noted are these: GST-Mmi1 fusion incubated with Erh1, glutathione-agarose, SDS-PAGE. The text has this:
Fig. 1 Mmi1 interacts with Erh1 in a 2:2 stoichiometry. a Shown is a schematic representation of the domain architecture of Mmi1. The disorder score from DISOPRED3 Server[62] and the conservation score are shown below. The conservation score is generated by a Protein Residue Conservation Prediction Server[63] from the sequence alignment of Mmi1 orthologues from S. pombe, S. cryophilus, S. octosporus, and S. japonicus. b–d Interactions of GST tagged Mmi1 peptides (GST-Mmi1) with Erh1 visualized by Coomassie blue staining. The indicated GST-Mmi1 fusion proteins or GST alone were incubated with Erh1. The complexes were collected with glutathione-agarose resin and bound proteins were eluted and then subjected to SDS-PAGE. GST or GST-Mmi1 fusion proteins without Erh1 are shown as a negative control. Source data are provided as a Source Data file. e The raw ITC titration data of Erh1 with SUMO tagged Mmi1^95–122 and its fitting curve are shown. KD dissociation constant, DP differential power, N binding stoichiometry, ΔH binding enthalpy. f ITC fitting curves of Erh1 using SUMO tagged Mmi1^95–122 (magenta), Mmi1^106–122 (blue) and Mmi1^95–111 (green) are shown. g Size-exclusion analysis of Erh1 (magenta) and Erh1-Mmi1^95–122 (blue). Marker sizes are 62.9 KDa (Albumin), 46.7 KDa (Ovalbumin), 20.3 KDa (Chymotrypsinogen), 14.6 KDa (Ribonuclease A). Also shown are theoretical monomer sizes (kDa) of Erh1 protein and Mmi1^95–122 peptide TEXT PRINTED IN THE PICTURE: (e) Mmi1^95–122 - Erh1: KD (μM) 0.83±0.19; N (sites) 0.90±0.01; ΔH (kJ per mol) −106±3.02 | (f) Mmi1^95–122: Erh1 KD (μM): 0.83±0.19 | (f) Mmi1^106–122: Erh1 KD (μM): 9.94±1.19 | (f) Mmi1^95–111: Erh1 KD (μM): no binding | (g) Erh1: 13.2 kDa | (g) Mmi1^95–122: 3.5 kDa
A region of Erh1 (residues 1–104) was amplified by PCR from the S. pombe genome and cloned into a modified pET28a (Novagen) vector without a thrombin protease cleavage site (p28a). GST-Mmi1^YTH was sub-cloned from a Mmi1^YTH-p28a construct to a modified PGex-4T1 vector with a TEV protease cleavage site (Tev4T1). […]

Data set [5] deals with B1. As to the kind of experiment: SEC; analytical size-exclusion chromatography, calibrated Superdex75 10/300 GL column; Erh1 alone and Erh1 with Mmi1^95-122 after removal of the SUMO tag by ULP1. The conditions noted are these: both partners purified.
The target of another data set is T2, Erh1 D27A. As to the kind of experiment: ITC; SUMO-tagged Mmi1 peptides titrated into Erh1 in the sample cell; MicroCal iTC200, 293 K; 20 mM Tris-HCl pH 7.5, 150 mM NaCl; single-site binding model. The conditions noted are these: both partners purified.
The next data set has as its target T3, Erh1 R23A. The data set is described as above. The conditions noted are these: both partners purified.
A further data set deals with T4, Erh1 D68A. Described as above. The conditions noted are these: both partners purified.
Another data set deals with T5, Erh1 H9A. Described as above. Particulars: both partners purified.
In the next data set the target is T6, Erh1 E85A. The description is as above. Particulars: both partners purified.

As for B1, the binding result in data set [1] is reported as “binds”. In data set [2], the “stoichiometry N” value was 2.

Take B2: the “calculated molecular weight of complex with Erh1 by SEC” value in data set [3] (Erh1 associated with Mmi1^95–122 after SUMO tag removal by ULP1, consistent with 2:2 stoichiometry) is 33 kDa. Further, the “apparent molecular weight by SEC (Erh1 alone)” value in [3] (Superdex75 10/300 GL, calibrated, predicted monomer ~13.2 kDa, likely homodimer) was 26 kDa.

On to B3, for which, in [4], the Kd came to 0.83 ± 0.19 µM and the “stoichiometry N” value came out at 0.9.

As for B4, in the data set on Erh1, the “interaction with Erh1 (GST pull-down)” value is reported as “bound efficiently to Erh1”.

In the case of B5, in data set [5], the “stoichiometry N” value was 1 Mmi1 per Erh1 (printed as 2:2).

Turning to B6, the Kd with Erh1 D27A amounted to 2.04 ± 0.366 µM; with Erh1 R23A it was 1.48 ± 1.07 µM; with Erh1 D68A, 3.96 ± 0.551 µM; with Erh1 H9A, 1.53 ± 0.205 µM; with Erh1 E85A it was 2.15 ± 0.291 µM. Moreover, the “stoichiometry N” value with Erh1 D27A worked out at 1.14; in the data set with Erh1 R23A it was 1.28; with Erh1 D68A, 1.34; with Erh1 H9A it was 1.32; with Erh1 E85A it was 1.08.

For the molecule B7, in the data set with Erh1, the “interaction with Erh1 (GST pull-down)” value is recorded as “no interaction”.

The values are drawn from paper PMC6335422 (Nature Communications, 2019).
